Laboratory results taken from patent publication US20230002481A1 (Chugai, published 2023).
One block for each binder: values may come before it.

Molecular target: T1, recombinant cyno C1r2s2 His/Flag tetramer (cynomolgus monkey, limits assumed)
T1 construct: Heterotetramer of two C1r-His and two C1s-Flag chains, co-expressed in FreeStyle293-F cells; also called cyno C1r2s2s
T1 chain 1: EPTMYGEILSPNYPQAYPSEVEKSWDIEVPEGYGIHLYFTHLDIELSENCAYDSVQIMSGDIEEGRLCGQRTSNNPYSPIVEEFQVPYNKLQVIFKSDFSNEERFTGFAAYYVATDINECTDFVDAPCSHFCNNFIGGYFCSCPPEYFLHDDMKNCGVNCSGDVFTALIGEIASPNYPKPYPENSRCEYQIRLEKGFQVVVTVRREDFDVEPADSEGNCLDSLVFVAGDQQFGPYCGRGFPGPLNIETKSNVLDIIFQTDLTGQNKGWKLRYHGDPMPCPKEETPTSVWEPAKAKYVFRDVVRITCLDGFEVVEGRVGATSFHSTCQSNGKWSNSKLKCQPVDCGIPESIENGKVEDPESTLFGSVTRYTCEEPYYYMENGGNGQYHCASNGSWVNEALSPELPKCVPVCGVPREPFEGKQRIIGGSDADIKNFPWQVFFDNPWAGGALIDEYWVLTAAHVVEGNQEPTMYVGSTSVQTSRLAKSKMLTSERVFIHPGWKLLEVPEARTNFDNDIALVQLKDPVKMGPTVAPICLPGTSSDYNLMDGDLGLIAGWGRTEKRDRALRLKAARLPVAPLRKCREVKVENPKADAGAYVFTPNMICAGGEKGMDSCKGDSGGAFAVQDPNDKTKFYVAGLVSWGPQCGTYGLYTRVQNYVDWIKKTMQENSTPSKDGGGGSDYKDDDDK
T1 chain 2: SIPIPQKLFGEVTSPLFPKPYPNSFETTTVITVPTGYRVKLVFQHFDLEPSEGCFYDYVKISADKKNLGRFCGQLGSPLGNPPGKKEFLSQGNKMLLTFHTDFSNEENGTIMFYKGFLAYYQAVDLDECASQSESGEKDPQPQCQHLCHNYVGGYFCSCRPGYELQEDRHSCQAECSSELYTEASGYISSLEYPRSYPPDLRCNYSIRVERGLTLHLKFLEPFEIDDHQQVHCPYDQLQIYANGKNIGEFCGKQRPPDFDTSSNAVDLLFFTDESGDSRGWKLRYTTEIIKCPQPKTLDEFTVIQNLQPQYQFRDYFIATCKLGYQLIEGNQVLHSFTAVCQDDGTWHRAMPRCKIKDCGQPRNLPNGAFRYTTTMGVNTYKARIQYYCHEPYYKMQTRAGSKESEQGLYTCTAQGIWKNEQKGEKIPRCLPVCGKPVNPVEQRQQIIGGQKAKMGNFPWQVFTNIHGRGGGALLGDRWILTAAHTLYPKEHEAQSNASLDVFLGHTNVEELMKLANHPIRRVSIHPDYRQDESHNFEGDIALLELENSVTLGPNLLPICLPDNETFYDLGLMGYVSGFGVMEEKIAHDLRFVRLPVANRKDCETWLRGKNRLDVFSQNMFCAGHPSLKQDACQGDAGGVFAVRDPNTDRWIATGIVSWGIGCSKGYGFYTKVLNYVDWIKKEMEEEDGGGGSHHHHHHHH
Assay: SPR (Biacore), pH5.8*: dissociation at pH5.8 after association and dissociation at pH7.4, 37 C, Scrubber fit
Method: The kinetic parameters of anti-C1s antibodies against recombinant human C1s (as described in PCT/JP2018/042054), human C1r2s2, and cyno C1r2s2 His/Flag (also referred as cyno C1r2s2 in the Table and Figures) were assessed at pH7.4 and pH5.8, at 37 degrees C. using BIACORE (registered trademark) T200 instrument (GE Healthcare) or BIACORE 4000 (GE Healthcare). ProAG (Pierce) was immobilized onto a CM4 sensorchip using amine coupling kit (GE Healthcare) according to the recommended settings by GE Healthcare. Antibodies and analytes were diluted into the respective running buffers, ACES pH7.4 and pH5.8 (20 mM ACES, 150 mM NaCl, 1.2 mM CaCl₂, 1 mg/ml BSA, 1 mg/ml CMD, 0.05% Tween 20, 0.005 w/v % NaN₃). Each antibody was captured onto the sensor surface by ProA/G. Antibody capture levels were typically 100-200 resonance units (RU). Then, recombinant C1s was injected at concentrations of 25 and 50 nM followed by dissociation at pH7.4 and pH5.8. The surface was regenerated using 10 mM Glycine-HCl, pH1.5. Kinetic parameters at neutral pH conditions and acidic conditions were determined by fitting the sensorgrams with 1:1 binding model using BIACORE (registered trademark) T200 Evaluation software, version 2.0 (GE Healthcare) or BIACORE 4000 Evaluation software. The dissociation rate at pH5.8 (after dissociation at pH7.4, indicated as pH5.8* in TABLE 2) was determined by processing and fitting data using Scrubber 2.0 (BioLogic Software) curve fitting software. The association rate (ka), dissociation rate (kd), binding affinity (KD) at pH7.4 and pH5.8 condition, and dissociation rate (kd) at pH5.8* condition of the antibodies are listed in TABLE 2. Some kinetic parameters of COS0098pHv1 in acidic condition were not correctly calculated because of its weak binding response.
Also, to observe the cross-reactivity of anti-C1s antibodies against human C1r2s2 and cyno C1r2s2 (cyno C1r2s2 His/Flag), BIACORE (registered trademark) kinetics analysis was performed.

koff: 0.000926 s⁻¹
B1: COS0098bb (antibody, V domains shown)
VH: QSVEESGGRLVTPGTPLTLTCTVSGFSLTKYTVSWVRQAPGKGLEWIGIINTGGSAYYATWAKGRFTFSKTSTTVDLQITSPTTEDTATYFCARGNGDTDYTNLWGPGTLVTVSS
VL: QVLTQTPSSVSEPVGGTVTINCQASENIYSALAWYQQKPGQPPKLLIYGASNLESGVPSRFKGSGSGTQFTLTISDLECADAATYYCQQYYFTSSTFGGGTKVEIK
notes: Anti-C1s rabbit antibody, parent of COS0098pHv1; the antibody was captured by ProA/G; also called anti-C1s antibody COS0098bb

koff: 0.0618 s⁻¹
B2: COS0098pHv1 (antibody, V domains shown)
VH: QVQLVQSGAEVKKPGSSVKVSCKASGHTFSKYTVSWIRQPPGKGLEWIGIINTGGSAYPATWAKGRVTITADESTSTAYMELSSLRSEDTAVYYCARGAGDTDYTNLWGQGTLVTVSS
VL: DIQMTQSPSSLSASVGDRVTITCQASENIYSALAWYQQKPGQPPKLLIYGASQLESGVPSRFSGSGSGTDFTLTISSLQPEDFATYYCQQYYFTSHTFGQGTKVEIK
notes: Humanized, optimized pH-dependent variant of COS0098bb
